# What was measured:
# [1] = biological target: human CXCR4 (on cells, viral lipoparticles or membrane extracts) (human) (UniProt P61073); assay: cell-based or functional assay
# [2] = biological target: human CXCR4 (on cells, viral lipoparticles or membrane extracts) (human) (UniProt P61073); assay: [125I]-SDF-1 displacement, Hek-CXCR4 membrane extracts
# [3] = biological target: human CXCR4 (on cells, viral lipoparticles or membrane extracts) (human) (UniProt P61073); assay: FACS displacement of 30 nM biotin-SDF-1, Caki-CXCR4 cells
# [4] = biological target: human CXCR4 (on cells, viral lipoparticles or membrane extracts) (human) (UniProt P61073); assay: FACS, Caki-CXCR4 cells
# [5] = biological target: recombinant IL-3Rα ectodomain (human) (UniProt P26951); assay: ELISA on recombinant IL-3Ra ectodomain (panel 'IL-3Ra ELISA', lower left)
# Sequence of recombinant IL-3Rα ectodomain (human) (P26951 19-305): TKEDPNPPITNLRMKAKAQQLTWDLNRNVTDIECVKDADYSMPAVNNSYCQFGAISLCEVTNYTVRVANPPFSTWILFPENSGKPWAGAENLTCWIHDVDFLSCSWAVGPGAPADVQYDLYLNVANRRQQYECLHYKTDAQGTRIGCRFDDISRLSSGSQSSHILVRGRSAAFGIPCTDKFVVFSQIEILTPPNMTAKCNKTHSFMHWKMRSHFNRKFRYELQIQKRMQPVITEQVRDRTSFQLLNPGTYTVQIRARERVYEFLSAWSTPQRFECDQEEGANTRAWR
# [6] = biological target: human CXCR4 (on cells, viral lipoparticles or membrane extracts) (human) (UniProt P61073); assay: ELISA on coated CXCR4 viral lipoparticles (upper right panel)
# [7] = biological target: human IL-23R, cell-expressed (human) (UniProt Q5VWK5); assay: cell-based or functional assay
# Sequence of human IL-23R, cell-expressed (human) (Q5VWK5 24-629): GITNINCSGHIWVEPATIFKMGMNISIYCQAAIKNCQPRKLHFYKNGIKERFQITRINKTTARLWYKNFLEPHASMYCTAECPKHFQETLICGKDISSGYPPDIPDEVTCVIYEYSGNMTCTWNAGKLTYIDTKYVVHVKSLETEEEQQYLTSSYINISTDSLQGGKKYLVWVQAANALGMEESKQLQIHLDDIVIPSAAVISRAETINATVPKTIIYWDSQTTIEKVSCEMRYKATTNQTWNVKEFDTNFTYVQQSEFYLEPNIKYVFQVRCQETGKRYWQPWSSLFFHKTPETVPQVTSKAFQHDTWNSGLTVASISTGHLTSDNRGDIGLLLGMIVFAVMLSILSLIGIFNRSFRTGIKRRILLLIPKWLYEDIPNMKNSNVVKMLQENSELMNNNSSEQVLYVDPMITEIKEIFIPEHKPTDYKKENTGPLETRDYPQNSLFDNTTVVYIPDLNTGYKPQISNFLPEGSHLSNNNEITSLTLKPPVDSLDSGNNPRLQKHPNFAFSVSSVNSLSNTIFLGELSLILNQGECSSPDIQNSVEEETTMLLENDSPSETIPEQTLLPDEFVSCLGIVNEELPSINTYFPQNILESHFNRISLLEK
# Sequence of human CXCR4 (on cells, viral lipoparticles or membrane extracts) (human) (P61073 whole entry, the tested form may be a part): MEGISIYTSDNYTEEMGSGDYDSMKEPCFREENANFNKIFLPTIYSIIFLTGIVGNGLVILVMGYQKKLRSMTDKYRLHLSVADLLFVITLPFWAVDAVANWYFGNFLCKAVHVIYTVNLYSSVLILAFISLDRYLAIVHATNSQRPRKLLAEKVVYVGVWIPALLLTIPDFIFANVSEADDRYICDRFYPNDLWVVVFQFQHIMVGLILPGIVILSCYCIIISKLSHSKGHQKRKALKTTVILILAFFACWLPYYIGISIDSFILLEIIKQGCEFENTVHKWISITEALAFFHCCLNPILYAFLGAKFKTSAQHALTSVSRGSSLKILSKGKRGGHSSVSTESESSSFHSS
binder,measurement,setting,value
"238D4 (VHH, from a related filing) VHH: EVQLMESGGGLVQAGGSLRLSCAASGRTFNNYAMGWFRRAPGKEREFVAAITRSGVRSGVSAIYGDSVKDRFTISRDNAKNTLYLQMNSLKPEDTAVYTCAASAIGSGALRRFEYDYSGQGTQVTVSS","IC50, SDF-1 chemotaxis, Jurkat",[1],7.6 nM
same,Ki,[2],5.4 nM
same,IC50,[3],2.1 nM
same,EC50,[4],3.4 nM
14D09-35GS-55A01 (bispecific antibody) EVQLVESGGGLVQAGGSLRLSCVASGISSSKRNMGWYRQAPGKQRESVATISSGGNKDYTDAVKDRFTISRDTTKNTVYLQMNSLKPEDTAVYYCKIEAGTGWATRRGYTYWGQGTLVTVSSGGGGSGGGGSGGGGSGGGGSGGGGSGGGGSGGGGSEVQLVESGGGSVQAGGSLRLSCTTSGRALNMYVMGWFRQAPGNEREFVAATSSSGGSTSYPDSVKGRFTISRDNAKNTVYLQMNSLKPEDTAAYRCAASPYVSTPTMNILEEYRYWGQGTLVTVSS,EC50 (read off the curve),[5],1 nM
same,"Fold inc. vs CXCR4#1, Jurkat E6-1",[1],0.87 fold
same,"Fold inc. vs CXCR4#1, MOLM-13",[1],2.39 fold
same,"IC50, CXCL-12 chemotaxis, Jurkat E6-1",[1],12 nM
same,"IC50, CXCL-12 chemotaxis, MOLM-13",[1],3.6 nM
same,EC50 (read off the curve),[6],7 nM
IL23R#19-35GS-CD4#8 (bispecific antibody) EVQLVESGGGLVQPGGSLTLSCVASGRTFSTDVMGWFRQAPGKEREFVAAHRTSGISTVYAASVKGRFTISRDNAKNTVYLGMKSLKPEDTAVYVCAAGSDASGGYDYWGQGTLVTVSSGGGGSGGGGSGGGGSGGGGSGGGGSGGGGSGGGGSEVQLVESGGGSVQPGGSLTLSCGTSGRTFNVMGWFRQAPGKEREFVAAVRWSSTGIYYTQYADSVKSRFTISRDNAKNTVYLEMNSLKPEDTAVYYCAADTYNSNPARWDGYDFRGQGTLVTVSS,"IC50, IL-17 release, PBMC D840",[7],58.9 nM
same,"fold ctrl, IL-17 release",[7],1.7 fold
